Drawing on publication PMC11609053, this text covers binding for 2 sequences.

For series [1], the target named is T1, SCAB_Lrp2 (Streptomyces scabies 87.22) (UniProt C9Z7M0).
T1 sequence: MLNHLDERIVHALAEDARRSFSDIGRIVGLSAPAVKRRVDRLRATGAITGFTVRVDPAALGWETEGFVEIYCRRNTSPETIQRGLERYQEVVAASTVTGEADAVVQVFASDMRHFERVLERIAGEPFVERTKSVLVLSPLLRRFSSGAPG
The experiment in a line: EMSA. The conditions noted are these: 20 uL: 50 ng biotin-labelled probe, 0-400 nM protein, 2 uL binding buffer (Liu et al. 2023; composition, pH and temperature not given), chemiluminescent ….

The target of series [2] is T2, SCAB_Lrp (Streptomyces scabies 87.22?) (UniProt C9ZB67).
T2 sequence: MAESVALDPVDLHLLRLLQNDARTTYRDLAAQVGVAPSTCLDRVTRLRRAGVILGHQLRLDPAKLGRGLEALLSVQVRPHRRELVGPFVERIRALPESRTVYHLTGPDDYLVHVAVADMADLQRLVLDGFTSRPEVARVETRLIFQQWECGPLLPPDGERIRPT
The experiment in a line: EMSA. As to conditions: 20 uL: 50 ng biotin-labelled probe, 0-400 nM protein, 2 uL binding buffer (Liu et al. 2023; composition, pH and temperature not given), chemiluminescent ….

In the case of “AAGGCAGTACCTTGCGCTCGGCGCGTCGGCCGGAAATCGAGTGAAGCAAGATGCTTCCCCCTTCTCGGCTCCGAGCGCGACAAACAGTTCAGAACAGGCCACGGCGAGATCCTCCGCAAGGAACGAACCCAGTCGTTCACCCGCTTAGTTTGATTGAAATTTCAACTACCAGGTCAATCG (double strand) [PtxtR]”, the binding result in series [1] is given as “binds”.
As to “GTCGTCTTCGGCGTCTGGATGGCCGCCGGGCTCGTGTTCTACTTCAGTTACGGCCACCGGCGCTCGCGTCTGGCTGCGGCCCCGGCCCCCGCCGACCCCACGTCCCCGCCGGCTCCCCCGTCCACGTCCCCGTCGACTCCAGAGAAGTGATCCACCCGCAGTGCTGAACCATCTCGACGA (double strand) [P75421]”, the binding result in series [1] and in series [2] was “binds” each time.
